Experimental data published in PMC4497506.

Experiments:
[1] = molecular target: hexahistidine-tagged soluble four-domain CD4 (UniProt P01730); assay: SPR
[2] = molecular target: HIV-1 YU-2 gp120 S375A (HIV-1 YU-2); assay: ITC
[3] = molecular target: HIV-1 YU-2 gp120 F210A (HIV-1 YU-2); assay: SPR
[4] = molecular target: HIV-1 YU-2 gp120 I109A (HIV-1 YU-2); assay: SPR
[5] = molecular target: HIV-1 YU-2 gp120 W112A (HIV-1 YU-2); assay: SPR
[6] = molecular target: wild-type HIV-1 YU-2 Env gp120, soluble monomeric (HIV-1 YU-2) (UniProt P35961); assay: SPR
[7] = molecular target: HIV-1 YU-2 gp120 M426A (HIV-1 YU-2); assay: SPR
[8] = molecular target: HIV-1 YU-2 gp120 T257A (HIV-1 YU-2); assay: ITC

For “HIV-1 YU-2 gp120 F210A (natural protein)”, the Kd [1] was 230 nM.
“HIV-1 YU-2 gp120 I109A (natural protein)” showed a Kd [1] of 6.8 nM.
Work on “HIV-1 YU-2 gp120 M426A (natural protein)” yielded a Kd [1] of 59 nM.
Work on “HIV-1 YU-2 gp120 S375A (natural protein)” yielded a Kd [1] of 6.2 nM.
With “HIV-1 YU-2 gp120 S375H (natural protein)” the Kd [1] was 5.2 nM.
Work on “HIV-1 YU-2 gp120 S375W (natural protein)” yielded a Kd [1] of 3.7 nM.
“HIV-1 YU-2 gp120 T257A (natural protein)” showed a Kd [1] of 10.2 nM.
In the case of “HIV-1 YU-2 gp120 T257R (natural protein)”, the Kd [1] is reported as 21 nM.
“HIV-1 YU-2 gp120 W112A (natural protein)” gave a Kd (mAb F105) of 83 nM and a Kd [1] of 95 nM.
“peptide 1 (sequence-minimized peptide triazole Ile-Asn-Asn-Ile-X-Trp, X = ferrocenyl-triazolePro)” was tested, and the dH [2] was -9.1 kcal/mol and the IC50 [3] was 200 nM.
In the case of “peptide 2 (peptide 1 with Trp replaced by Tyr)”, the IC50 [3] is reported as 4100 nM, the IC50 [4] is reported as 3100 nM and the IC50 [5] is reported as greater than 50000 nM. The IC50 [6] was 3000 nM and the IC50 [7] was 5100 nM.
For “peptide 4 (peptide 1 with N-methylated indole at Trp 6)”, the dH [8] was -11 kcal/mol, the stoichiometry N [8] was 1.15 and the dH [2] was -9.3 kcal/mol. The stoichiometry N [2] was 1.13.
